Test results reported in the nanobody polyreactivity screen of Harvey et al. (2022).

Test: yeast display, Sf9 membrane polyspecificity reagent, FACS + sequencing; frameworks hold sequencing errors
How it was run: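 Nanobodies came from a synthetic yeast display library in Saccharomyces cerevisiae BJ5465, induced with galactose for 36–48 hours and stained for 1 hour at 4 °C with 10% biotinylated, detergent-solubilized Sf9 membrane reagent. Cells were enriched on streptavidin microbeads and then FACS-sorted, with low and high (top ~1%) gates set on anti-HA fluorescence for expression and streptavidin fluorescence for reagent binding. Each polyreactivity label reflects the gate a clone came from. Genes were amplified by colony PCR, sequenced by MiSeq 2 × 250 and filtered by CDR length.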

QVQLVESGGGLVQAGGSLRLSCAASGIIFGYSAMGWYRQAPGKERELVAAITRSGSSTYYADSVKGRFTISRDNAKNTVYLQMNSLKPEDTAVYYCAADNFYQSYGYWGQGTQVTVSS
polyreactivity (PSR sort gate): low polyreactivity

QVQLVESGGGLVQAGGSLRLSCAASGIIFGYYAMGWYRQAPGKVRELVAAISWSGGSTYYADSVKGRFTFSRDNAKNTVYLQMNSLKPEDTAVYYCNAVYVSYTYQQTRSGGYDYWGQGTQVTVSS
polyreactivity (PSR sort gate): high polyreactivity

QVQLVESGGGLVQAGGSLRLSCAASGIIFHLYTMGWYRQAPGKERELVAAISNNGGRTYYADSVKGRFTISRDNAKNTVYLQMNSLKPEDTAVYYCAKYLSPGERHSYDYWGQGTQVTVSS
polyreactivity (PSR sort gate): high polyreactivity

QVQLVESGGGLVQAGGSLRLSCAASGIIFINYVMGWYRQAPGKESELVAAITGSGSSTYYADSVKGRFTISRDNAKNTVYLQMNSLKPEDTAVYYCAADNPRVRFLYYYWGQGTQVTVSS
polyreactivity (PSR sort gate): high polyreactivity

QVQLVESGGGLVQAGGSLRLSCAASGIIFISYVMGWYRQAPGKERELVAAITRSGDSTYYADSVKGRFTISRDNAKNTVYVQMNSLKPEDTAVYYCAAEHAYSYWDYDYWGQGTQVTVSS
polyreactivity (PSR sort gate): high polyreactivity

QVQLVESGGGLVQAGGSLRLSCAASGIIFKLYAMGWYRQAPGKEREFVATITKTGGRTYYEDSVKGRFTISRDNAKNTVYLQMNSLKPEDTAVYYCAARRVNGKMYYWGQGTQVTVSS
polyreactivity (PSR sort gate): high polyreactivity

QVQLVESGGGLVQAGGSLRLSCAASGIIFKRYAMGWYRQAPGKDRELVAAISSRAGRTYYADSVKGRFTISRDNAKNNVYLQLNSLKPEDTAVYYCNTGLVYGYDYWGQGTQVTVSS
polyreactivity (PSR sort gate): high polyreactivity

QVQLVESGGGLVQAGGSLRLSCAASGIIFKSNAMGWSRQAPGKERELVAAIRSSGSTNYADSVKGRFTISRDNAKNTVYLQLNSLKPEDTAVYYCAVSSWSVWGHYYWGQGTQVTVSS
polyreactivity (PSR sort gate): high polyreactivity

QVQLVESGGGLVQAGGSLRLSCAASGIIFKYNAMGWSRQAPGKERELVAAITSGGSTYYADSVKGRFTISRDNAKNTVYLQRNSLKPEDTAVYYCAARYTYVKNFFRRLTAYYYWGQGTQVTVSS
polyreactivity (PSR sort gate): high polyreactivity

QVQLVESGGGLVQAGGSLRLSCAASGIIFKYNVMGWYTQAPGKERELVAAITDSGTSTFYADSVKGRFTISRDNAKNTVSLQMNSLKPEDTAFYYCAADEFSVFTIETYGYDYWGQGTQVTVSS
polyreactivity (PSR sort gate): low polyreactivity

QVQLVESGGGLVQAGGSLRLSCAASGIIFLWYAMGWYRQAPGKERELVAAISRTGSSTYYADSVKGRFTISRDNAKNTVYFQMNSLKPEDTAVYYCAAAYYSKRSWRFDYWGQGTQVTVSS
polyreactivity (PSR sort gate): high polyreactivity

QVQLVESGGGLVQAGGSLRLSCAASGIIFNDYAMGWYRQAPGKERELVATISWSGGSTYADSVKGRFTISRDNAKNTVYLQMNSLKPEDTAVYYCAAVPRRSYGGYPYYYWGQGTQVTVSS
polyreactivity (PSR sort gate): low polyreactivity

QVQLVESGGGLVQAGGSLRLSCAASGIIFNGYAMGWYRQAPGKERELVAAISSSGGRTYYADSVKGRFTISRDNAKNTVYLQMNSLKPEDTAVYYCAADAAGSRVYPYDYWGQGTQVTVSS
polyreactivity (PSR sort gate): high polyreactivity

QVQLVESGGGLVQAGGSLRLSCAASGIIFPFYAMGWYRKAPGKERELVAAITSDGNTNYADSVKGRFTISRDNAKNTVYLQMNSLKPEDTAVYYCNAETQYGVLSWHSTRHEYWGQGTQVTVSS
polyreactivity (PSR sort gate): low polyreactivity

QVQLVESGGGLVQAGGSLRLSCAASGIIFPFYAMGWYRQAPGKERELVAAITSGGDTYYADSVKGRFTISRDNAKNTVYLQMNSLKPEDTAVYYCAAVYRRQYGYWGQGTQVTVSS
polyreactivity (PSR sort gate): high polyreactivity

QVQLVESGGGLVQAGGSLRLSCAASGIIFPPYTMGWYRQAPGKERELVAAINTRGSRTYYADSVKGRFTISRDNAKNTVYLQMNSLKPEDTAVYYCAADVWWSTTYDYWGQGTQVTVSS
polyreactivity (PSR sort gate): high polyreactivity

QVQLVESGGGLVQAGGSLRLSCAASGIIFPRYALGWYRQAPGKERELVAAITIGGRTNYADSVKGRFTISRDNAKNTVYLQMNSLKPEDPAVYYGAAQTYVPYYEYDYWGQGTQVTVSS
polyreactivity (PSR sort gate): low polyreactivity

QVQLVESGGGLVQAGGSLRLSCAASGIIFPSYVMGWYRQAPGKERELVAAISSRGTSTYYADSVKGRFTISRDHAKNTVYLQMNSLKPEDTAVYYCAAKSFGTTTRSEYDYWGQGTQVTVSS
polyreactivity (PSR sort gate): high polyreactivity

QVQLVESGGGLVQAGGSLRLSCAASGIIFPTYAMGWYRQAPGKERELVAAISVSGGTTSYADSVKGRFTISRDNAKNTVYLQMNSLKPEDTAVYYCAKRPFSTRYDYWGQGTQVTVSS
polyreactivity (PSR sort gate): high polyreactivity

QVQLVESGGGLVQAGGSLRLSCAASGIIFPVYAMGWYRQAPGKERELVAAISNRAGSTYYADSVKGRFTISRDNAKNSVYLQMNSLKPEDTAVYYCAAASRRSGASSWYDYWGQGTQVTVSS
polyreactivity (PSR sort gate): high polyreactivity

QVQLVESGGGLVQAGGSLRLSCAASGIIFPWYAMGWYRPAPGKERELVAAISGSGGSTYYADSVKGRFTISRDNAKNTVYLQMNSLKPEDTAVYYCAAYPRGSQRYNYGGQGTQVTVSS
polyreactivity (PSR sort gate): high polyreactivity

QVQLVESGGGLVQAGGSLRLSCAASGIIFPYNAMGWYRQAPGKERELVAAITGGGSTYYADSVKGRFTISRDNAKNTVYLQMNSLKPEDTAVYYCAADRSGPGYDYWGQGTQVTVSS
polyreactivity (PSR sort gate): low polyreactivity

QVQLVESGGGLVQAGGSLRLSCAASGIIFPYYAMGWYREAPGIERELVAGLDSSGSSTNYADSVKGRFTISRDTAKTTVYLQITSLQPEDTAVYYCAKVTSSGDAVLTQIPYGYDYWGQGTQVTVSS
polyreactivity (PSR sort gate): low polyreactivity

QVQLVESGGGLVQAGGSLRLSCAASGIIFPYYSMGWYRQAPGKERELVAAITSSGGSTYYADSVKGRFTISRDNAKNTVYLQMNSLKPEDTAVYYCAAQTWGHGGDSWGQGTQVTVSS
polyreactivity (PSR sort gate): high polyreactivity

QVQLVESGGGLVQAGGSLRLSCAASGIIFQAYAKGWYRQAPGKERELVAAISYSGGSTYYAESVKGRFTISRDNAKNNVDLQMNRLKPEVTAVYYCAAELYRYWFDMYYWGQGTQVTVSS
polyreactivity (PSR sort gate): low polyreactivity

QVQLVESGGGLVQAGGSLRLSCAASGIIFQPYAMGWYRQAPGKERELVAAITYSGDGTFYADSVKGRFTISRDNAKNTVYLQMNSLKPEDTAVYYCAAYPRDPYKEYDYWGQGTQVTVSS
polyreactivity (PSR sort gate): low polyreactivity

QVQLVESGGGLVQAGGSLRLSCAASGIIFQRNDMGWYRQAHGKERELVANIRDGGITYADSVKGRFTISRDNAKNTVYLKMNSLKPEDTAVYYCARDDTSPGYGDQSSNASNYYWGQGTQVTVSS
polyreactivity (PSR sort gate): low polyreactivity

QVQLVESGGGLVQAGGSLRLSCAASGIIFQRNDMGWYRQAPGKERELDANIRDGGITYADSVKGRFTISRDNAKNTVYLQMNSLKPEDTAVYYCARYDTSPGYGDQSSNAAYYYWGQVTQVTVSS
polyreactivity (PSR sort gate): low polyreactivity

QVQLVESGGGLVQAGGSLRLSCAASGIIFRGNALGWYRPAPGKERELVAAISRSGRTNYADSVKGRFTISRDNAKNTVYLQMNSLKPEDNAVYYCAVDKRYGRVVGRDYDYWGQGTQVTVSS
polyreactivity (PSR sort gate): high polyreactivity

QVQLVESGGGLVQAGGSLRLSCAASGIIFRGYAMGWYRQAPGKERELVAAISKSGGSTYYADSVKGRFTISRDNAKNTVYLQMNSLKPEDTAVYYCAADVYKQYGYYYWGQGTQVTVSS
polyreactivity (PSR sort gate): high polyreactivity

QVQLVESGGGLVQAGGSLRLSCAASGIIFRGYAMRWYRQAPGKVREVVAVITSGGGTYYADSVKGRFTISRDNAKNNVYLQMNSLKPEETAVYYCNAASSLPGYDYWGQGTQVTVSS
polyreactivity (PSR sort gate): high polyreactivity

QVQLVESGGGLVQAGGSLRLSCAASGIIFRLNAMGWYRQAPGKERELGAAIRRRGGSTYYADSVKGRFTISRDNAKNTVYLQMNSLKPEDTAVYYCAADAPWAYYEYDYWGQGTQVTVSS
polyreactivity (PSR sort gate): low polyreactivity
